Laboratory results: patent US20220242974A1 (QURE BIOTECHNOLOGY SHANGHAI, published 2022)

B1: QP1125 nanobody (VHH)
VHH: QVQLVESGGGLVQPGGSLRLSCTAPGFTDKTCAMAWYRQVAGIEREWVSSISTLGTTNYASSVKGRFTISKDNAKDTVYLQMNNLKPEDTAMYVCKTFSCRNRGGSYLPDTWGQGTQVTVSS
notes: as m59
B2: QP1124 nanobody (VHH)
VHH: QVQLVESGGGLVQPGGSLRLSCTAPGFTSNTCAMGWYRQAAGMQREWVSSISKYGITTYANSVKGRFTISKDKAEDTVYLQMNNLKPEDTAMYVCKTFSCRNRGGAYLADAWGQGTQVTVSS
notes: as m59
B3: QP1128 nanobody (VHH)
VHH: QVQLVESGGGSVQSGGSLRLSCAASGYTASAYYMAWFRQNSRKQREGVAAINRDGDTKYADSVKGRFTISRDDAKNTLYLQMNSLKPEDTAVYYCAASDWSRLYKIYWLDDNYYVRWGQGTQVTVSS
notes: as m59
B4: QP1127 nanobody (VHH)
VHH: QVQLVESGGGSVQSGGSLTLSCAISGYAYATYSMAWFRQAHGKEREGVAAINSDGHTTYVDSVKGRFTISRDNTNKNSYTLTLTMNNLNPEDTAMYYCAATSQLGFWAQKLWEAIRDGTWSPSTTDFGFWGRGTQVTVSS
notes: as m59

The binders below were run against PD-L1-his fusion protein (Homo sapiens (Human), UniProt Q9NZQ7 19-238) (assay: ELISA, PD-L1-his coated, culture supernatant of the clone).
PD-L1-his fusion protein, sequence (Q9NZQ7 other isoform, or with tags, fused parts or gaps limits assumed): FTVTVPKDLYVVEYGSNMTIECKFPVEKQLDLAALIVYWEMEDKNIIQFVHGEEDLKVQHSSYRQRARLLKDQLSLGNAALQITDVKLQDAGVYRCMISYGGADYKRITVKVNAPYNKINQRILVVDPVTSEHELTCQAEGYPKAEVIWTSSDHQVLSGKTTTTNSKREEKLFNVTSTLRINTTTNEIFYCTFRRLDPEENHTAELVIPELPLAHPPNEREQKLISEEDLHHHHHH

Binding result, binds:
B1, B2, B3, B4
